Here are results for one molecule from paper PMC7083852, “Ultrafast in-gel detection by fluorescent super-chelator probes with HisQuick-PAGE” (Communications Biology, 2020).

The target of this assay is T1, Thermus thermophilus multidrug-resistance protein A (TmrA), C-terminal His10-tag (Thermus thermophilus, UniProt Q72J05 1-600).
T1 construct: Thermus thermophilus multidrug-resistance protein A (TmrA), subunit of the heterodimeric ABC transporter TmrAB; Produced and purified together with TmrB as the heterodimer TmrAB; also called His10-tagged subunit of TmrAB; not shown: His10, C-terminal, kept
T1 sequence (looked up): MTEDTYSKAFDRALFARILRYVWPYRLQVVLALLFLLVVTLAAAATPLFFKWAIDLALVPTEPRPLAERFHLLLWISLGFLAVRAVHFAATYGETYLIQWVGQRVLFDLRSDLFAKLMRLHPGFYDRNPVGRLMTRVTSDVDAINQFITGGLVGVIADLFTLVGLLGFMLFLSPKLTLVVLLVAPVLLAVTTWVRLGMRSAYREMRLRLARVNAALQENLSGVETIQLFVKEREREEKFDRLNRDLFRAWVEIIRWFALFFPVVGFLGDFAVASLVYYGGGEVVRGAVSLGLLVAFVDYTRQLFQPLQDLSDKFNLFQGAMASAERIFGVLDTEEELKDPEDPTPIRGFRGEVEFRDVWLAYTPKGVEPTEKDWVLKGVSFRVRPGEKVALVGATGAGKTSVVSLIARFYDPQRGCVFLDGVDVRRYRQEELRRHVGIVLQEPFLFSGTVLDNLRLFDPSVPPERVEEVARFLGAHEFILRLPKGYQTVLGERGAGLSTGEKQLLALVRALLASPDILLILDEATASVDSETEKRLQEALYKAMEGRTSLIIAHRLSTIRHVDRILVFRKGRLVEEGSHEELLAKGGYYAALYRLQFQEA
Put plainly: native gel or EMSA; blue native PAGE of purified TmrAB (1.3 µg, 500 nM; produced in E. coli and purified as a whole via His10 on TmrA and by SEC) in DDM or reconstituted in MSP1D1 nanodiscs; labelled with tris- or hexaNTA-Alexa647 (450 nM), in-gel fluorescence. The settings on record: both partners purified. (In EMSA bound probe runs differently from free probe, usually more slowly.)

B1: Thermus thermophilus multidrug-resistance protein B (TmrB) (natural protein, UniProt Q72J04 1-578, looked up)
chain: MTGRSAAPLLRRLWPYVGRYRWRYLWAVLAGLVSIFFFVLTPYFLRLAVDAVQAGRGFGVYALAIVASAALSGLLSYAMRRLAVVASRQVEYDLRRDLLHHLLTLDRDFYHKHRVGDLMNRLNTDLSAVREMVGPGILMGSRLSFLVLLAFLSMYAVNARLAFYLTLILPGIFLAMRFLLRLIDRRYREAQEVFDRISTLAQEAFSGIRVVKGYALERRMVAWFQDLNRLYVEKSLALARVEGPLHALLGFLMGFAFLTVLWAGGAMVVRGELSVGELVQFNAYLAQLTWPILGLGWVMALYQRGLTSLRRLFELLDEKPAIRDEDPLPLALEDLSGEVRFEGVGLKRDGRWLLRGLTLTIPEGMTLGITGRTGSGKSLLAALVPRLLDPSEGRVYVGGHEARRIPLAVLRKAVGVAPQEPFLFSETILENIAFGLDEVDRERVEWAARLAGIHEEILAFPKGYETVLGERGITLSGGQRQRVALARALAKRPKILILDDALSAVDAETEARILQGLKTVLGKQTTLLISHRTAALRHADWIIVLDGGRIVEEGTHESLLQAGGLYAEMDRLQKEVEA
notes: Thermus thermophilus multidrug-resistance protein B (TmrB), subunit of the heterodimeric ABC transporter TmrAB; Produced and purified together with TmrA as the heterodimer TmrAB; also called subunit of TmrAB
For the molecule B1, the binding result was “binds”.
